This passage reports Kd and EC50 results from publication PMC9887757.

Experiment [1] has as its target BKPyV VLP genotype III (VP1 virus-like particles) (BK polyomavirus) (UniProt P03088). Description: SPR; avidity.
Experiment [2] concerns the target BKPyV VLP genotype II (VP1 virus-like particles) (BK polyomavirus) (UniProt P03088). Description: SPR; avidity.
In experiment [3] the target is BKPyV VLP genotype IVc2 (VP1 virus-like particles) (BK polyomavirus) (UniProt P03088). Description: SPR; avidity.
Sequence of BKPyV VLP genotype IVc2 (VP1 virus-like particles) (BK polyomavirus) (P03088 whole entry, looked up): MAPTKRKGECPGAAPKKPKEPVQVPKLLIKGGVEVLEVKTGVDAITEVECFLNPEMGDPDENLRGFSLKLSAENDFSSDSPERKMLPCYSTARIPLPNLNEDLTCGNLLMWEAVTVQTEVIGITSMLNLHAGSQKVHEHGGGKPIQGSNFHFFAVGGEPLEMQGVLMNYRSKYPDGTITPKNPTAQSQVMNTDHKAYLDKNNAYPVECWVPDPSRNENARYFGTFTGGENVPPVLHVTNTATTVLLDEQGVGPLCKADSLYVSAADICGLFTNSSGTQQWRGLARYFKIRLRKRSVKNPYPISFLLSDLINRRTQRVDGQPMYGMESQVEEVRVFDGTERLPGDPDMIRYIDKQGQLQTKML
Experiment [4] deals with BKPyV VLP genotype Ia (VP1 virus-like particles) (BK polyomavirus) (UniProt P03088). Description: SPR; avidity.
Sequence of BKPyV VLP genotype Ia (VP1 virus-like particles) (BK polyomavirus) (P03088 whole entry): as the sequence (P03088 whole entry, looked up) above
For experiment [5], the target named is BKPyV VLP genotype III (VP1 virus-like particles) (BK polyomavirus) (UniProt P03088). Description: ELISA.
Sequence of BKPyV VLP genotype III (VP1 virus-like particles) (BK polyomavirus) (P03088 whole entry, looked up): as above
In experiment [6] the target is BKPyV VLP genotype II (VP1 virus-like particles) (BK polyomavirus) (UniProt P03088). Description: ELISA.
Sequence of BKPyV VLP genotype II (VP1 virus-like particles) (BK polyomavirus) (P03088 whole entry, looked up): as above
Experiment [7] has as its target BKPyV VLP genotype IVc2 (VP1 virus-like particles) (BK polyomavirus) (UniProt P03088). Description: ELISA.
Experiment [8] concerns the target BKPyV VLP genotype Ia (VP1 virus-like particles) (BK polyomavirus) (UniProt P03088). Description: ELISA.

“antibody 120 (clonotype 120, 41F17-like) (from UniProt P01857)”: the Kd was found to be 210 pM in experiment [1], 160 pM in experiment [2], 860 pM in experiment [3] and 110 pM in experiment [4]. Besides, the EC50 in experiment [5] was determined as 240 pM; in experiment [6] it was 260 pM; in experiment [7], 190 pM; in experiment [8], 170 pM.
For “antibody 160 (clonotype 160, 41F17-like) (from UniProt P01857)”, the Kd in experiment [1] amounted to 170 pM; in experiment [2], 280 pM; in experiment [3], 270 pM; in experiment [4], 230 pM. The EC50 in experiment [5] was found to be 130 pM; in experiment [6], 380 pM; in experiment [7], 140 pM; in experiment [8], 140 pM.
Take “antibody 198 (clonotype 198, 41F17-like) (from UniProt P01857)”: the Kd in experiment [1] came out at 110 pM; in experiment [2] it was 2290 pM; in experiment [3], 280 pM; in experiment [4], 1630 pM. In addition, the EC50 in experiment [5] was 900 pM; in experiment [6] it was 1410 pM; in experiment [7] it was 430 pM; in experiment [8], 540 pM.
